In publication PMC3458822, “Dimerization of DOCK2 Is Essential for DOCK2-Mediated Rac Activation and Lymphocyte Migration” (PLoS ONE, 2012):

Legend:
[1] = target: murine DOCK2 DHR-2 domain, wild type (murine); experiment: SEC; Superdex 200 10/300 GL, 20 mM Tris-HCl pH 8.0, 250 mM NaCl, 5 mM 2-mercaptoethanol, 1 ml/minute, 20°C; size estimated against protein standards
[2] = target: the molecule itself; experiment: crystal structure; human DOCK2 DHR-2 in complex with Rac1, PDB 3B13

For “murine DOCK2 DHR-2 domain, wild type (domain or fragment)”, the stoichiometry N [1] was 2.

B1: human DOCK2 DHR-2 domain (domain or fragment)
chain: SKDNRMSCTVNLLNFYKDNNREEMYIRYLYKLRDLHLDCDNYTEAAYTLLLHTWLLKWSDEQCASQVMQTGQQHPQTHRQLKETLYETIIGYFDKGKMWEEAISLCKELAEQYEMEIFDYELLSQNLIQQAKFYESIMKILRPKPDYFAVGYYGQGFPSFLRNKVFIYRGKEYERREDFQMQLMTQFPNAEKMNTTSAPGDDVKNAPGQYIQCFTVQPVLDEHPRFKNKPVPDQIINFYKSNYVQRFHYSRPVRRGTVDPENEFASMWIERTSFVTAYKLPGILRWFEVVHMSQTTISPLENAIETMSTANEKILMMINQYQSDETLPINPLSMLLNGIVDPAVMGGFAKYEKAFFTEEYVRDHPEDQDKLTHLKDLIAWQIPFLGAGIKIHEKRVSDNLRPFHDRMEECFKNLKMKVEKEYGVREM
notes: DOCK2, human, DHR-2 domain (lobes A, B and C) as crystallised with Rac1; Dimerises through lobe A in the crystal
With B1 the “stoichiometry N” value [2] was 2.
